In the supplement of paper PMC10126150:
± gives the standard deviation of the averaged measurements.

Test system: ATP
Assay: switch fluorescence ratio, 500 uM ATP over buffer (Cy3 cluster intensity, sum of 5 cycles each) (fold (ratio)); higher = stronger signal-on switching upon ATP binding; sequences stand for … in TCGTCGGCAGCGTCAGATGTGTATAAGAGACAGTTTTTTTTTTTTTTTTTTTTTTTTT…TC
Settings: aptamer strand: ATP DNA aptamer (quencher-CACCTGGGGGAGTATTGCGGAGGAAGG + anchor), 100 nM annealed; ATP concentration: 500 uM
In short: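 Values give the fluorescence ratio for each switch-domain sequence, averaged from per-cluster ratios of summed target-cycle to summed buffer-cycle Cy3 intensity. The Cy3-labelled switching-strand clusters sat on a modified Illumina MiSeq flow-cell, were annealed to 100 nM quencher-labelled ATP aptamer, and were imaged in selection buffer, then after 15 min with 500 uM ATP at 22 °C. Five cycles ran with NaOH stripping and re-annealing between them, and clusters outside 100-1000 RFU were excluded.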
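Also: ATP exposure 15 min at 22 °C before imaging.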

GGTATAGGCT
switch fluorescence ratio: 0.996 ± 0.014

TTGCATCTTG
switch fluorescence ratio: 1.01 ± 0.033

TGCCGACGTA
switch fluorescence ratio: 1.03 ± 0.017

TTCTAAAAAA
switch fluorescence ratio: 1.01 ± 0.021

AATTATACAT
switch fluorescence ratio: 1.04 ± 0.043

ACTGGAGGAT
switch fluorescence ratio: 1.05 ± 0.013

AGTTAGTATG
switch fluorescence ratio: 0.979 ± 0.032

ATGCCATTAG
switch fluorescence ratio: 0.967 ± 0.02

TGGTTTACTC
switch fluorescence ratio: 1.14 ± 0.18

TCCACCGTCG
switch fluorescence ratio: 1.27 ± 0.065

TTTATGACGT
switch fluorescence ratio: 1 ± 0.023

AGGGTTTGGA
switch fluorescence ratio: 1 ± 0.02

AGATGGTACT
switch fluorescence ratio: 0.9668 ± 4.6e-05

TTGGGGGCAT
switch fluorescence ratio: 1.02 ± 0.052

AAGTTTTGAG
switch fluorescence ratio: 1.03 ± 0.019

GTTAGGTTTG
switch fluorescence ratio: 0.997 ± 0.029

ATTTGTAAGC
switch fluorescence ratio: 0.9909 ± 0.0068

GTGACCCGGA
switch fluorescence ratio: 0.97057 ± 0.00025

AGGTAAAGTT
switch fluorescence ratio: 0.972 ± 0.014

ACTTGTAGTA
switch fluorescence ratio: 1.01 ± 0.012

CAGGGGGGTA
switch fluorescence ratio: 1.01 ± 0.016

CGCCTGGCCG
switch fluorescence ratio: 0.9439 ± 0.0079

ATGGGTGGCT
switch fluorescence ratio: 1.011 ± 0.007

CAATGGACGT
switch fluorescence ratio: 0.99 ± 0.029

ATGGCGGGTT
switch fluorescence ratio: 1 ± 0.016

TTGGCGTCGT
switch fluorescence ratio: 0.995 ± 0.043

TCCACGGGG
switch fluorescence ratio: 1.12 ± 0.057

CTTCGTGACA
switch fluorescence ratio: 1.042 ± 0.0027

ATGGCAGGAT
switch fluorescence ratio: 1 ± 0.063

GAGGGCATTT
switch fluorescence ratio: 0.985 ± 0.02

TTTTGTAGGG
switch fluorescence ratio: 0.969 ± 0.041

CCAGACAGC
switch fluorescence ratio: 1.01 ± 0.052

ATGGTATCGG
switch fluorescence ratio: 1.026 ± 0.0074

TGCTTCTTTG
switch fluorescence ratio: 0.979 ± 0.011

AAATAGGGGG
switch fluorescence ratio: 0.967 ± 0.026

GTTCCTGTGG
switch fluorescence ratio: 1.0156 ± 0.00081

TGGCGCTTTT
switch fluorescence ratio: 0.9976 ± 0.0079

GTTTGGTGC
switch fluorescence ratio: 1.02 ± 0.022

GATGTGTTCT
switch fluorescence ratio: 0.988 ± 0.042

CTGGTTGATT
switch fluorescence ratio: 0.997 ± 0.04

TTTTTACAGT
switch fluorescence ratio: 1.02 ± 0.048

GATCTCGTGG
switch fluorescence ratio: 1.01 ± 0.056

TCCGCGGTTT
switch fluorescence ratio: 1.23 ± 0.18

TTTTAAGAAA
switch fluorescence ratio: 3.11 ± 3

GGCTAGAATC
switch fluorescence ratio: 0.986 ± 0.024

ATTATACTTC
switch fluorescence ratio: 1.04 ± 0.013

TAGTTGAGTG
switch fluorescence ratio: 0.987 ± 0.037

CCGGGGGGTT
switch fluorescence ratio: 1.09 ± 0.14

TTTTACTTTT
switch fluorescence ratio: 1.01 ± 0.037

GCTTGGGGGA
switch fluorescence ratio: 0.998 ± 0.041

TGTCATTCGC
switch fluorescence ratio: 1.047 ± 0.0074

GTAGTTTTGG
switch fluorescence ratio: 1.01 ± 0.026

AGGATATTGG
switch fluorescence ratio: 1.01 ± 0.02

TTTGTATGG
switch fluorescence ratio: 0.9819 ± 0.0042

GGTTTTCTCG
switch fluorescence ratio: 1.03 ± 0.023

GAGTAACTGT
switch fluorescence ratio: 0.966 ± 0.016

GAAGTGTGGC
switch fluorescence ratio: 1.08 ± 0.031

CGTTCGATAT
switch fluorescence ratio: 1.03 ± 0.03

GGGGTCTGCG
switch fluorescence ratio: 1.03 ± 0.059

ATTGATATCC
switch fluorescence ratio: 0.987 ± 0.043

TATTGGTTTG
switch fluorescence ratio: 1.04 ± 0.045

ATCCGTTTTG
switch fluorescence ratio: 0.986 ± 0.02

TTGGTTCTGA
switch fluorescence ratio: 1.021 ± 0.0036

CGGTCAGGGT
switch fluorescence ratio: 0.995 ± 0.015

TGGAACTTTT
switch fluorescence ratio: 0.974 ± 0.021

ATAAACGGGG
switch fluorescence ratio: 0.9917 ± 0.001

CGGTAATCGG
switch fluorescence ratio: 0.988 ± 0.01

CGAACAGCGC
switch fluorescence ratio: 1.01 ± 0.019

GTCGGTTGGA
switch fluorescence ratio: 0.977 ± 0.036

CTAAGAGGGA
switch fluorescence ratio: 0.999 ± 0.025

TACCCTTGCC
switch fluorescence ratio: 1.22 ± 0.25

CGTCTATTGT
switch fluorescence ratio: 0.98 ± 0.046

TTGTGATACT
switch fluorescence ratio: 1.07 ± 0.044

AGGTTTAATT
switch fluorescence ratio: 1.01 ± 0.015

ACTTCGAATA
switch fluorescence ratio: 1.36 ± 0.07

CTAACGGACT
switch fluorescence ratio: 1.16 ± 0.068

CAGGCATAAG
switch fluorescence ratio: 0.9805 ± 0.0036

AGGAACGCGC
switch fluorescence ratio: 1.02 ± 0.027

CCCAAAGCGG
switch fluorescence ratio: 1.09 ± 0.032

TGGGGTTGAT
switch fluorescence ratio: 0.968 ± 0.033

GTGCAATAGT
switch fluorescence ratio: 3.71 ± 0.63

GGGGGGAGTC
switch fluorescence ratio: 1.05 ± 0.028

TCTGCTACAA
switch fluorescence ratio: 1.02 ± 0.038

ACCGGGGCAA
switch fluorescence ratio: 1.13 ± 0.16

ACTTTGAGTG
switch fluorescence ratio: 0.976 ± 0.015

CAATGTGGGT
switch fluorescence ratio: 0.986 ± 0.0086

CTGGTCATTT
switch fluorescence ratio: 0.997 ± 0.069

AGACGCAGGG
switch fluorescence ratio: 1.034 ± 0.0053

CGAGATATGT
switch fluorescence ratio: 1.002 ± 0.0038

AAACCAGGGG
switch fluorescence ratio: 1.54 ± 0.11

ATTTGGTGAG
switch fluorescence ratio: 0.983 ± 0.03

CCGAGCGGGA
switch fluorescence ratio: 1.77 ± 0.37

AATGGAATTG
switch fluorescence ratio: 0.9965 ± 0.005

GCGTCGTCGG
switch fluorescence ratio: 1.01 ± 0.036

TTGGGGAAGC
switch fluorescence ratio: 0.958 ± 0.002

TTGGGGGCGA
switch fluorescence ratio: 1.036 ± 0.0035

AGCCTTAGGG
switch fluorescence ratio: 1 ± 0.02

ACGGTCACCC
switch fluorescence ratio: 1.66 ± 0.07

GGGTCCATCT
switch fluorescence ratio: 1 ± 0.013

GTGGTGATAG
switch fluorescence ratio: 0.9652 ± 0.0041
